Earlier results on one substance are cited in US8501705B2, “Methods and materials for treating autoimmune and/or complement mediated diseases and conditions” (The Board of Regents of the University of Texas System, priority 2003, dated 2013).

This data set addresses C3 (Mus musculus, UniProt P01027). The note with it: inhibition of C3.

Sequence of C3 (P01027 25-1663): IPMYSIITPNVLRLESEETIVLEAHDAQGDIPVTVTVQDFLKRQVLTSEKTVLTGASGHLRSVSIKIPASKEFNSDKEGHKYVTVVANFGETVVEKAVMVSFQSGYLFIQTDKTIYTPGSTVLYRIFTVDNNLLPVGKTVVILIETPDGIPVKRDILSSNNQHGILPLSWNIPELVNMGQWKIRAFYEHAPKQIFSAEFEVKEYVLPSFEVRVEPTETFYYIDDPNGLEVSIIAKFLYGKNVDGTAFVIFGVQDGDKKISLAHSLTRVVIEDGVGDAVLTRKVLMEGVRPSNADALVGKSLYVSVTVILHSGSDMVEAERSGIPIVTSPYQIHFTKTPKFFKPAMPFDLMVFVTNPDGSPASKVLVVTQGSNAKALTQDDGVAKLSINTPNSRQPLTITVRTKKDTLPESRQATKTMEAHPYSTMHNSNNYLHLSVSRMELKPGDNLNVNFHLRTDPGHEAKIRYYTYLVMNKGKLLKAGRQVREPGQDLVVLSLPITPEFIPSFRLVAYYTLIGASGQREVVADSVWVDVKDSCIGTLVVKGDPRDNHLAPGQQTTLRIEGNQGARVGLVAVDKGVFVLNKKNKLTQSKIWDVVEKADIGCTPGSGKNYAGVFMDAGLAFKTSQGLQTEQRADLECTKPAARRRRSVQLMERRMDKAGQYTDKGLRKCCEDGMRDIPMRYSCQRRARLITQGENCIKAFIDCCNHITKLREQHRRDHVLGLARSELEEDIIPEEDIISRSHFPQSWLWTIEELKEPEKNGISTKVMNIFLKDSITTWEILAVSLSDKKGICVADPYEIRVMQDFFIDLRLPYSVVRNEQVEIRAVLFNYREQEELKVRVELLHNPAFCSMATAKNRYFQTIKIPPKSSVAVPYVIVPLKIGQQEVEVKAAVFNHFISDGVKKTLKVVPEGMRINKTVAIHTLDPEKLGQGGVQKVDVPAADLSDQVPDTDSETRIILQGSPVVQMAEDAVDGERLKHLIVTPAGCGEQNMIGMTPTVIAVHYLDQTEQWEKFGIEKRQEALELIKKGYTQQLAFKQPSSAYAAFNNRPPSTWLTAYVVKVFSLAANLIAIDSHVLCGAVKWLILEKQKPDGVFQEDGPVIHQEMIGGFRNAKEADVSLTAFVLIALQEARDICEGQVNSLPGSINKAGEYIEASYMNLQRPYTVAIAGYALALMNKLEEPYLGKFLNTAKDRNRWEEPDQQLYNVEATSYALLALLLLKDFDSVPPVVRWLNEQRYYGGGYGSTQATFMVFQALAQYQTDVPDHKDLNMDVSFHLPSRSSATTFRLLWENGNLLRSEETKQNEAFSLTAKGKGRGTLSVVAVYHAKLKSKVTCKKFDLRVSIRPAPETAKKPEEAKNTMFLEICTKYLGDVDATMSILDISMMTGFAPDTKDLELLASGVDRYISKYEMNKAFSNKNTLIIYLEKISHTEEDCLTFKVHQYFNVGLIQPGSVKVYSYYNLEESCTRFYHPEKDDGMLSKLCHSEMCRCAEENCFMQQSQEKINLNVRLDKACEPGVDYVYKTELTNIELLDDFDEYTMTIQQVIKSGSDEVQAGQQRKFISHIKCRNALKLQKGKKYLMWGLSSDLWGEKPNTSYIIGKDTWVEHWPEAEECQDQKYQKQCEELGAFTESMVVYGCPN

As to cobra venom factor, the EAMG disease induction result was “inhibits disease induction”.
